Biological target: SV40 large T (SV40), P03070
Assay: biotinylated row protein on streptavidin beads, 35S column protein counted
Details: remark: other sources report otherwise

B1: p53, P02340 1-390 (protein)
chain: MTAMEESQSDISLELPLSQETFSGLWKLLPPEDILPSPHCMDDLLLPQDVEEFFEGPSEALRVSGAPAAQDPVTETPGPVAPAPATPWPLSSFVPSQKTYQGNYGFHLGFLQSGTAKSVMCTYSPPLNKLFCQLAKTCPVQLWVSATPPAGSRVRAMAIYKKSQHMTEVVRRCPHHERCSDGDGLAPPQHLIRVEGNLYPEYLEDRQTFRHSVVVPYEPPEAGSEYTTIHYKYMCNSSCMGGMNRRPILTIITLEDSSGNLLGRDSFEVRVCACPGRDRRTEEENFRKKEVLCPELPPGSAKRALPTCTSASPPQKKKPLDGEYFTLKIRGRKRFEMFRELNEALELKDAHATEESGDSRAHSSYLKTKKGQSTSRHKKTMVKKVGPDSD
modifications: here or on the partner: 35S-methionine label or biotinylated lysine, by its role in the assay
RI (c.p.m.): 884 c.p.m.
